Data as given in patent US20060204512A1 (VASGENE THERAPEUTICS, published 2006).

Molecular target: T1, EphB4 CF2 protein (ECD version with deleted globular domain, 6xHis tagged) (human, UniProt P54760 16-537)
T1 construct: The entry is the precursor
T1 sequence: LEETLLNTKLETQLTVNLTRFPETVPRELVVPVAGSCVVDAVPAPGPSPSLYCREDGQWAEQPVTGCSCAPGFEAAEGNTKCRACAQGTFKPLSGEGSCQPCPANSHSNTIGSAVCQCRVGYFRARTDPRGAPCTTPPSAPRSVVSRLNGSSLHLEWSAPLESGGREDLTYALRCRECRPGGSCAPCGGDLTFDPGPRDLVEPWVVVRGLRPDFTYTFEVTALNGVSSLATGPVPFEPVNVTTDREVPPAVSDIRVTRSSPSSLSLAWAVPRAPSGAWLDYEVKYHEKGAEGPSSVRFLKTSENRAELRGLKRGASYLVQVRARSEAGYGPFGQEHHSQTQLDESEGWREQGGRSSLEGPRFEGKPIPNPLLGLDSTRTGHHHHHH
Assay: Ephrin B2-AP binding to B4 proteins immobilized on Ni2+ resin or nitrocellulose membrane
Experimental: To confirm ability of the purified recombinant proteins to bind Ephrin B2, they were tested in an in vitro binding assay. As expected, GC, GCF1 and GCF2, but not CF2 are binding the cognate ligand Ephrin B2 as confirmed by interaction between Ephrin B2-alkaline phosphatase (Ephrin B2-AP) fusion protein with the B4 proteins immobilized on Ni²⁺ resin or on nitrocellulose membrane (FIG. 17).

binding result: no binding
B1: B2EC-AP reagent (protein fusion of Ephrin B2 ectodomain with placental alkaline phosphatase) (ligand, UniProt P52799 28-229, looked up)
chain: IVLEPIYWNSSNSKFLPGQGLVLYPQIGDKLDIICPKVDSKTVGQYEYYKVYMVDKDQADRCTIKKENTPLLNCAKPDQDIKFTIKFQEFSPNLWGLEFQKNKDYYIISTSNGSLEGLDNQEGGVCQTRAMKILMKVGQDASSAGSTRNKDPTRRPELEAGTNGRSSTTSPFVKPNPGSSTDGNSAGHSGNNILGSEVALFA
notes: extracellular domain; also called B2-AP; Ephrin B2-AP; not shown: placental alkaline phosphatase
